In patent publication US20200041497, “ANALYTE DETECTION METHOD” (IMPERIAL COLLEGE INNOVATIONS LIMITED, published 2020):

B1: TBA detection probe iii (69-mer) (ssDNA)
DNA: GGTTGGTGTGGTTGGTTTTTTTTTGTCTTTTTTTTTTTTCTGTTTTTAAAAACTTACGCACGACACCTT
B2: AChE detection probe (75-mer) (ssDNA)
DNA: GGTTGACTGTAGCTCTGGCAGACGTAGTGTGAAGGTACCGGGCGGCGACCTAAGGTGTCGTGCGTAAGTTTTTAA
B3: TBA detection probe ii (51-mer) (ssDNA)
DNA: GGTTGGTGTGGTTGGGGGCGGCGACCTAAGGTGTCGTGCGTAAGTTTTTAA

Tests used:
alpha-thrombin [1] = biological target: T1, alpha-thrombin (Homo sapiens, UniProt P00734;P00734 P00734:328-363,P00734:364-622); test: nanopore translocation on lambda-DNA carrier; 100 mM KCl, 10 mM Tris, 1 mM EDTA pH 8
[2] = biological target: acetylcholinesterase (AChE) (UniProt O42275 O42275:24-633); test: EMSA; AChE 660 nM, modified aptamer 0-5000 nM; 2.7 mM KCl, 4 mM MgCl2 PBS pH 7.4, 1 h; conditions: tags: Sigma-Aldrich, UK; M.W. 280 kDa as stated; chain copies: 4; aptamer with extension hybridised to lambda-DNA 3' end
Protocol: FIG. 20: Electrophoretic mobility shift assay (EMSA) to confirm the binding of the aptamers to thrombin and AChE targets. All gels shown above include a 25 bp ladder and indicated as M in the gel. (i) Thrombin (750 nM) was incubated with different concentration of modified TBA aptamer (top left) ranging from 0-5000 nM in 140 mM NaCl, 20 mM MgCl2, 20 mM PBS buffer pH 7.4 for 45 mins. The 7 lanes on the gel represent the following concentrations of aptamer (from left to right): 0, 50, 100, 250, 500, 1000 and 5000 nM. The samples were then loaded on a 10% native polyacrylamide cast gel and ran for 75 min at 80V and stained with SYBR gold and imaged under UV. […] (ii) modified TBA (200 nM) was then incubated with different concentration of thrombin in the same binding buffer as (i) for 45 min. The […] consist of different thrombin concentration from left to right: 0, 250, 500, 1000, 1500, 2500, 5000 and 7500 nM. The samples were then loaded to a 10% native polyacrylamide cast gels and ran for 75 min at 80V and stained with SYBR gold and imaged. (iii) AChE (660 nM) was incubated with different concentration of modified AChE aptamer ranging from 0-5000 nM in 2.7 mM KCl, 4 mM MgCl2 PBS buffer pH 7.4 for 1 hour. […]

alpha-thrombin [3] = biological target: T1, alpha-thrombin; test: EMSA; 200 nM TBA, 0-500 nM thrombin; 50 mM Tris, 140 mM NaCl, 1 mM MgCl2 pH 7.4

acetylcholinesterase (AChE), sequence (O42275 24-633, one chain of several): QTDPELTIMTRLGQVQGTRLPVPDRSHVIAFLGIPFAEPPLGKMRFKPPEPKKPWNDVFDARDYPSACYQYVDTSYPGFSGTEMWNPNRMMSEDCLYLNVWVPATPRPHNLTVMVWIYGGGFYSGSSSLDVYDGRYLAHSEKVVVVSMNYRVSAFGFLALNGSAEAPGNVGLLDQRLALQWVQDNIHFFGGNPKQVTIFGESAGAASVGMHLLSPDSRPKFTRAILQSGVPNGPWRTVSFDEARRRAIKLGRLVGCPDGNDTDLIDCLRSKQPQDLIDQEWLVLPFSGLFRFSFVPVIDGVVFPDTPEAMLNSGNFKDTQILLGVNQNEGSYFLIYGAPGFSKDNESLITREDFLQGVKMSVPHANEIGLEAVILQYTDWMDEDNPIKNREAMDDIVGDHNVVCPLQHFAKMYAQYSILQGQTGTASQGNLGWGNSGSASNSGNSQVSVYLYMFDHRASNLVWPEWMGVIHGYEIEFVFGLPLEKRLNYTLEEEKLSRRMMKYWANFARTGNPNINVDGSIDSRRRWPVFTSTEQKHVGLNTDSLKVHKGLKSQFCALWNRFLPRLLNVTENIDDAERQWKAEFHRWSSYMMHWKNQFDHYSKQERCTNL

Binder | binding result (alpha-thrombin [1]) | other results
B1 | binds | –
B2 | – | binding result [2]: binds
B3 | binds | –
GGTTGGTGTGGTTGG (ssDNA) [TBA 15-mer] | – | binding result (alpha-thrombin [3]): binds
